The experiment addresses T1, HGPRBMY3 (human, UniProt Q9H1C0 1-372).
T1 construct: on CHO-NFAT/Galpha15 cells for the reporter assay; also called GPCR19; GPR92; not shown: its amino
The experiment can be described thus: cell-based phage-display panning on CHO-K1 cells transfected with HGPRBMY3; sequencing of eluted phage. As to the method:
On the day of panning, growth medium was discarded and cells were washed with 10 ml PBS by allowing the buffer to flow over the cells. The PBS was removed and 10 ml Tris-EDTA detaching buffer (Gibco Cat. # 13150-016; no trypsin) was added for 2 min. Plates were tapped and/or pipetted up and down to detach cells. This was done quickly to minimize the exposure of the cells to this reagent. Cells were pelleted by centrifugation at 3K, and then washed with 20 ml PBS. Cells were resuspended cells in PBS with 2% milk blocking agent plus protease inhibitor (EDTA-free; Roche Cat. # 1 873 580). For each library, cell suspensions of ˜500 μl were used. Cells were blocked for 30-60 min with gentle rocking at room temperature. The integrin-coated wells were washed 3×in PBST, then blocked with 2% BSA in PBS for 30 min or more. To preadsorb against integrin, input phage was added to the integrin-coated wells, and incubated for 30 min or more.
At this stage, the blocked parental cells were divided into the required number of aliquots (500 μl aliquot/library). The phage supernatants were added from the integrin-preadsorption step. Preadsorption against the parental cells was carried out for 30 min or more with gentle rocking. The blocked transfected cells were divided into the required number of aliquots (500 μl aliquot per library). The transfected cells were pelleted, and the supernatant was discarded. The phage supernatants from the two preadsorption steps were added, and cells were incubated with gentle rocking for 2 h or more. Cells were washed 6-8× with PBST at 5 min intervals. Each wash was performed by gently pipetting the cells up and down, and cells were centrifuged at low speed. To recover binding phage from the washed cell pellets, 500 μl 6M urea, pH 3.0 was added for 15 min. This was neutralized with 10 μl 2 M Tris (not adjusted for pH). The phage in the eluate were titered and arnplified by standard procedures (NEB protocol for PhD phage libraries). In some cases, the eluate was viscous due to the presence of chromosomal DNA.
Standard procedures were used. Phage in eluates were infected into E. coli host strain ER2738 (New England Biolabs) for all M13KE-based libraries, and cells were plated for plaques. Colonies were grown in liquid medium and analyzed by standard sequencing procedures.

20 molecules from patent US20040209808A1 (published 2004) can be followed below.

T1 sequence (Q9H1C0 whole entry): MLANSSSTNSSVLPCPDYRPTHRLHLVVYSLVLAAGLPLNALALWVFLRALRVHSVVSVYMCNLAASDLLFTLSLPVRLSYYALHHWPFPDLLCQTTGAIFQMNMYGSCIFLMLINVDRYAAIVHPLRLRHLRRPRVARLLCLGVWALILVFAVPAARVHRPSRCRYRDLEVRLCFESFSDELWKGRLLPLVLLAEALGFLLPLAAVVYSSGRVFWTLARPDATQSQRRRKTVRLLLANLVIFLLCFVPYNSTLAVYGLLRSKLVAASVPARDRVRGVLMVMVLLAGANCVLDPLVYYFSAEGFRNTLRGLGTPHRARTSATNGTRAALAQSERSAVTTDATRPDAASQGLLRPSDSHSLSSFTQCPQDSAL

For the molecule KLWTIPSNDYPP [SEQ ID NO 38], the binding result is reported as “binds”.
Under FPHKLWVLPVKT [SEQ ID NO 37] stands “binds”.
As for KLWVPQNRPELV [SEQ ID NO 43], the binding result is recorded as “binds”.
Next, VYSKVWLLPAGQ [SEQ ID NO 19]: “binds”; TSTPHRVWQLPV [SEQ ID NO 45]: “binds”; TTPHRVWNLPLEAQQ [SEQ ID NO 46]: “binds”.
Under KLWILADNFTNR [SEQ ID NO 35] stands “binds”; under KVWSLDISAPQH [SEQ ID NO 23], “binds”; under KLWIPHTSQPFL [SEQ ID NO 40], “binds”.
On to HLKVWEVRSPGP [SEQ ID NO 20], for which the binding result was “binds”.
Under KVVDSNHKVWLVSQT [SEQ ID NO 25] stands “binds”.

B1: SEQ ID NO 17 (peptide)
peptide: LEAKIWVVPAPS
notes: Selected from random M13KE phage-display libraries
On to B1, for which the binding result is “binds”.
Under NAKVWTVPSKPP [SEQ ID NO 21] stands “binds”; under KLWDITAPLPKP [SEQ ID NO 41], “binds”; under INSPHELKKLWLLPP [SEQ ID NO 36], “binds”.
ADVLHATPSEKVWLL [SEQ ID NO 24]: the binding result is “binds”.
Under NAKLWQIPAIPH [SEQ ID NO 42] stands “binds”.
Next, KVWIPTSTWLQT [SEQ ID NO 22]: “binds”; TGQTKIWYPHST [SEQ ID NO 18]: “binds”.
Under NHDNTKKVWILA [SEQ ID NO 26] stands “binds”.
